Results taken from patent US20210244795A1.

What was measured:
Assay in all cases: cell-based or functional assay
[1] = molecular target: HIV envelope gp160 of 25710 (pseudotyped virus, Tier 2, clade C) (HIV)
[2] = molecular target: HIV envelope gp160 of X1632 (pseudotyped virus) (HIV)
[3] = molecular target: HIV envelope gp160 of CE1176 (pseudotyped virus) (HIV)
[4] = molecular target: HIV envelope gp160 of X2278 (pseudotyped virus) (HIV)
[5] = molecular target: HIV envelope gp160 of CE0217 (pseudotyped virus) (HIV)
[6] = molecular target: HIV envelope gp160 of CH119 (pseudotyped virus) (HIV)
[7] = molecular target: HIV envelope gp160 of CNE55 (pseudotyped virus) (HIV)
[8] = molecular target: HIV envelope gp160 of 246F3 (pseudotyped virus) (HIV)
[9] = molecular target: HIV envelope gp160 of BJOX2000 (pseudotyped virus) (HIV)
[10] = molecular target: HIV envelope gp160 of CNE8 (pseudotyped virus) (HIV)
[11] = molecular target: HIV envelope gp160 of TRO11 (pseudotyped virus) (HIV)
[12] = molecular target: HIV envelope gp160 of 398F1 (pseudotyped virus) (HIV)
[13] = molecular target: SIVmac239 envelope (pseudotyped virus, tier 3 isolate) (SIV)

Row | Substance | IC50, neutralization of 25710 pseudovirus, TZM-bl assay, mouse sera [1] | IC50, pseudovirus neutralization, TZM-bl assay, mouse sera [1] | IC80, neutralization of 25710 pseudovirus, TZM-bl assay, mouse sera [1] | IC50, pseudovirus neutralization, TZM-bl assay, mouse sera [2] | IC50, neutralization of CE1176 pseudovirus, TZM-bl assay, mouse sera [3] | IC50, pseudovirus neutralization, TZM-bl assay, mouse sera [3] | IC50, pseudovirus neutralization, TZM-bl assay, mouse sera [4] | IC50, pseudovirus neutralization, TZM-bl assay, mouse sera [5] | IC50, pseudovirus neutralization, TZM-bl assay, mouse sera [6] | IC50, pseudovirus neutralization, TZM-bl assay, mouse sera [7] | IC50, pseudovirus neutralization, TZM-bl assay, mouse sera [8] | IC50, pseudovirus neutralization, TZM-bl assay, mouse sera [9] | IC50, pseudovirus neutralization, TZM-bl assay, mouse sera [10] | IC50, pseudovirus neutralization, TZM-bl assay, mouse sera [11] | IC50, pseudovirus neutralization, TZM-bl assay, mouse sera [12] | IC50, pseudovirus neutralization, TZM-bl assay, mouse sera [13] | fold drop in IC50 against ReCD4-Ig without sulfation [1] | fold drop in IC80 against ReCD4-Ig without sulfation [1] | fold drop in IC50 against ReCD4-Ig without sulfation [3]
1 | ReCD4-Ig (expressed from p-ReCD4-Ig alone, no co-delivered sulfotransferase) (Fc fusion) | 1.09 µg/mL | < 5 µg/mL | 3.27 µg/mL | < 5 µg/mL | 0.57 µg/mL | < 5 µg/mL | < 5 µg/mL | < 5 µg/mL | < 5 µg/mL | < 5 µg/mL | < 5 µg/mL | < 5 µg/mL | < 5 µg/mL | < 5 µg/mL | < 5 µg/mL | < 5 µg/mL |  |  | 
2 | ReCD4-Ig sulfated by co-expressed IgE-TPST2 (Fc fusion) | 0.16 µg/mL | < 5 µg/mL | 1.35 µg/mL | < 5 µg/mL | 0.05 µg/mL | < 5 µg/mL | < 5 µg/mL | < 5 µg/mL | < 5 µg/mL | < 5 µg/mL | < 5 µg/mL | < 5 µg/mL | < 5 µg/mL | < 5 µg/mL | < 5 µg/mL |  | 6.8 fold | 2.4 fold | 10 fold
